Patent US8409836B2, “Treatment of cellulosic material and enzymes useful therein” (Roal Oy, priority 2005, dated 2013)

What was measured:
[1] = Hydrolysis with endoglucanase preparations, corn stover; format: biochemical; conditions: 48 h, 45° C., pH 5.0
Description: (§1) The preparations containing the endoglucanases were compared in hydrolysis studies mixed with the purified CBH/Cel7 and CBH/Cel6 enzymes on several pre-treated substrates. Culture filtrates of T. reesei, containing different cloned endoglucanase enzymes were obtained as described in Example 19. The enzymes were enriched by removing thermolabile proteins from the mixtures by a heat treatment (60° C., 2 h, pH 5) and the supernatant was used for the hydrolysis studies. In addition, pure T. reesei cellulases (purified as described by Suurnäkki et al., 2000) were used in the enzyme mixtures. The endoglucanases used in the experiment were:
Steam exploded corn stover fibre (steam pre-treatment at 210° C. for 5 min), dry matter 31.0% (SECS).
(§2) The endoglucanases to be studied (dosage 840 nkat/g dry matter, based on endoglucanase activity against HEC according to IUPAC, 1987) were used either with cellobiohydrolases of T. reesei (CBHI/Cel7A, 8.1 mg/g d.m. and CBHII/Cel6A, 2.0 mg/g d.m.) or with Thermoascus aurantiacus Cel7A with genetically attached CBD of T. reesei (10.1 mg/g d.m.). Purified (Suurnäkki et al., 2000) EGI (Cel7B) and EGII (Cel5A) of T. reesei were also included in the experiments for comparison. All mixtures were supplemented with additional β-glucosidase from Novozym 188 (to make the total β-glucosidase dosage 560 nkat/g d.w., the relatively high dosage was used to compensate the differences in the background activities of the different EG preparations). Triplicate tubes were incubated in mixing at 45° C. for 48 h and reference samples with inactivated enzymes and corresponding substrates were prepared. The release of hydrolysis products was measured as reducing sugars with DNS method using glucose as standard (Table 31).

[2] = Hydrolysis with endoglucanase preparations, spruce; format: biochemical; conditions: 48 h, 45° C., pH 5.0
Description: as §1
Washed steam pre-treated spruce fibre (impregnation with 3% SO2 for 20 min, followed by steam pre-treatment at 215° C. for 5 min), dry matter 25.9% (SPRUCE).
as §2

[3] = Isoelectric focusing (PhastSystem), pI of purified protein; format: physicochemical; conditions: IEF gel
Description: The sample was dissolved in water and applied to a Superdex 75 HR 10/30 gel filtration column equilibrated with 20 mM sodium phosphate pH 6.0, containing 0.15 M NaCl. Fractions were collected and those containing endoglucanase activity were combined. The protein eluate was judged to be pure by SDS-polyacrylamide gel electrophoresis and the molecular mass was evaluated on the basis of molecular mass standards (prestained SDS-PAGE standards, Broad Range, Bio-Rad) to be 54 kDa. The pI of the purified protein, designated as Ct EG—54 was determined with PhastSystem (Pharmacia) to be ca 5.5.
The sample was applied to a Sephacryl S-100 HR 26/60 gel filtration column equilibrated with 50 mM sodium acetate buffer pH 5.0, containing 0.05 M NaCl. The protein fraction containing endoglucanase activity was eluted from the column with a retention volume corresponding to a molecular weight of 16 kDa. Collected fractions were combined, concentrated and gel filtration was repeated. The protein eluate was judged to be pure by SDS-polyacryl amide gel electrophoresis and the molecular weight was evaluated to be 28 kDa. The pI of the purified protein, designated as Ta EG—28, was determined in an IEF gel (PhastSystem, Pharmacia) to be about 3.5. The specific activity of Ta EG—28 at 50° C. was determined to be 4290 nkat/mg (procedure of IUPAC 1987, using CMC as substrate).
The active material from the anion exchange chromatography was applied to a Sephacryl S-300 HR 26/60 column equilibrated with 20 mM sodium phosphate pH 6.5, containing 0.15 M NaCl. The protein with β-glucosidase activity was eluted with a retention volume corresponding to a molecular weight of 243 kDa. The protein was judged to be pure by SDS-polyacrylamide gel electrophoresis and the molecular weight was evaluated to be 101 kDa. The pI of the purified protein, designated as At βG—101, was determined in an IEF gel (PhastSystem, Pharmacia) to be in the area of 5.6-4.9. The specific activity of At βG—101 at 50° C. was determined to be 1100 nkat/mg (using 4-nitrophenyl-β-D-glucopyranoside as substrate, Bailey and Linko, 1990).
The active material from the cation exchange chromatography was applied to a Sephacryl S-300 HR 26/60 column equilibrated with 20 mM sodium phosphate pH 7.0, containing 0.15 M NaCl. The protein with β-glucosidase activity was eluted with a retention volume corresponding to a molecular weight of 294 kDa. […] The protein was judged to be pure by SDS-polyacrylamide gel electrophoresis and the molecular weight was evaluated to be 81 kDa, representing most likely the monomeric form of the protein. […] The specific activity of the purified protein, designated as Ta βG—81, at 50° C. was determined to be 600 nkat/mg using 4-nitrophenyl-β-D-glucopyranoside as substrate (Bailey and Linko, 1990). […]

[4] = Hydrolysis with CBH enzyme mixtures, willow; format: biochemical; conditions: additional enzymes EGII, bG, 48 h, 45° C., pH 5.0
Description: (§3) The performance of the purified recombinant cellobiohydrolases was evaluated in the hydrolysis studies with purified T. reesei enzymes. Hydrolysis was carried out with controlled mixtures of purified enzymes on several pre-treated substrates. […] In addition, pure T. reesei cellulases (purified as described by Suurnäkki et al., 2000) were used in the enzyme mixtures. The cellobiohydrolases used in the experiment were:
(§4) Each CBH/Cel7 to be tested (dosage 14.5 mg/g dry matter of substrate) was used either together with EGII/Cel5A of T. reesei (3.6 mg/g) or with a mixture containing T. reesei EGI/Cel7B (1.8 mg/g), EGII/Cel5A (1.8 mg/g), xylanase pI 9 (Tenkanen et al. 1992) (5000 nkat/g) and acetyl xylan esterase (AXE) (Sundberg and Poutanen, 1991) (250 nkat/g). All mixtures were supplemented with additional β-glucosidase from a commercial enzyme preparation Novozym 188 (176 nkat/g d.w.). Triplicate tubes containing the enzyme mixture and 10 mg (dry matter)/ml of the substrate suspended in 0.05 M sodium acetate were incubated in mixing by magnetic stirring at 45° C. for 48 h. Reference samples with inactivated enzymes and corresponding substrates were also prepared. The release of hydrolysis products was measured as reducing sugars with DNS method using glucose as standard (Table 30).
Washed steam pre-treated willow fibre (pre-treatment for 14 min at 210° C.), dry matter 23.0% (WILLOW).

[5] = Hydrolysis with CBH enzyme mixtures, Avicel; format: biochemical; conditions: additional enzymes EGII, bG; 48 h, 45° C., pH 5.0
Description: as §3, §4
Crystalline cellulose (Avicel)

[6] = Hydrolysis with CBH enzyme mixtures, corn stover; format: biochemical; conditions: additional enzymes EGII, bG, 48 h, 45° C., pH 5.0
Description: as §3, §4
Washed wet oxidized corn stover fibre (WOCS).

[7] = Hydrolysis with CBH enzyme mixtures, spruce; format: biochemical; conditions: additional enzymes EGII, bG; 48 h, 45° C., pH 5.0
Description: as §3, §4
Washed steam pre-treated spruce fibre (impregnation with 3% w/w SO2 for 20 min, followed by steam pre-treatment at 215° C. for 5 min), dry matter 25.9% (SPRUCE).

[8] = with CBHI and CBHII of T. reesei
[9] = with T. aurantiacus Cel7A + Tr CBD

B1: EGII: endoglucanase II (Cel5A) of T. reesei, reference enzyme (protein, UniProt P07982 22-418, looked up)
Endoglucanase EG-II: QQTVWGQCGGIGWSGPTNCAPGSACSTLNPYYAQCIPGATTITTSTRPPSGPTTTTRATSTSSSTPPTSSGVRFAGVNIAGFDFGCTTDGTCVTSKVYPPLKNFTGSNNYPDGIGQMQHFVNEDGMTIFRLPVGWQYLVNNNLGGNLDSTSISKYDQLVQGCLSLGAYCIVDIHNYARWNGGIIGQGGPTNAQFTSLWSQLASKYASQSRVWFGIMNEPHDVNINTWAATVQEVVTAIRNAGATSQFISLPGNDWQSAGAFISDGSAAALSQVTNPDGSTTNLIFDVHKYLDSDNSGTHAECTTNNIDGAFSPLATWLRQNNRQAILTETGGGNVQSCIQDMCQQIQYLNQNSDVYLGYVGWGAGSFDSTYVLTETPTSSGNSWTDTSLVSSCLARK
In the case of B1, the “Hydrolysis products as reducing sugars, SECS” value [1, 8] is reported as 3.5 mg/mL, the “Hydrolysis products as reducing sugars, SPRUCE” value [2, 8] is reported as 3.8 mg/mL and the “Hydrolysis products as reducing sugars, SPRUCE” value [2, 9] is reported as 3.2 mg/mL.

B2: EGI: endoglucanase I (Cel7B) of T. reesei, reference enzyme (protein, UniProt P07981 23-459, looked up)
Endoglucanase EG-1: QQPGTSTPEVHPKLTTYKCTKSGGCVAQDTSVVLDWNYRWMHDANYNSCTVNGGVNTTLCPDEATCGKNCFIEGVDYAASGVTTSGSSLTMNQYMPSSSGGYSSVSPRLYLLDSDGEYVMLKLNGQELSFDVDLSALPCGENGSLYLSQMDENGGANQYNTAGANYGSGYCDAQCPVQTWRNGTLNTSHQGFCCNEMDILEGNSRANALTPHSCTATACDSAGCGFNPYGSGYKSYYGPGDTVDTSKTFTIITQFNTDNGSPSGNLVSITRKYQQNGVDIPSAQPGGDTISSCPSASAYGGLATMGKALSSGMVLVFSIWNDNSQYMNWLDSGNAGPCSSTEGNPSNILANNPNTHVVFSNIRWGDIGSTTNSTAPPPPPASSTTFSTTRRSSTTSSSPSCTQTHWGQCGGIGYSGCKTCTSGTTCQYSNDYYSQCL
In the case of B2, the “Hydrolysis products as reducing sugars, SECS” value [1, 8] is reported as 4.6 mg/mL, the “Hydrolysis products as reducing sugars, SECS” value [1, 9] is reported as 4.2 mg/mL and the “Hydrolysis products as reducing sugars, SPRUCE” value [2, 8] is reported as 3.5 mg/mL.

B3: Ct EG_54: endoglucanase of Chaetomium thermophilum ALKO4261, gene Ct cel7B, amino acid SEQ ID NO: 16 (protein)
chain: MTRKFALVPLLLGLASAQKPGNTPEVHPKITTYRCSHRQGCRPETNYIVLDSLTHPVHQLNSNANCGDWGNPPPRSVCPDVETCAQNCIMEGIQDYSTYGVTTSGSSLRLKQIHQGRVTSPRVYLLDKTEQQYEMMRLTGFEFTFDVDTTKLPCGMNAALYLSEMDATGARSRLNPGGAYYGTGYCDAQCFVTPFINGIGNIEGKGSCCNEMDIWEANSRSQSIAPHPCNKQGLYMCSGQECEFDGVCDEWGCTWNPYKVNVTDYYGRGPQFKVDTTRPFTVITQFPADQNGKLTSIHRMYVQDGKLIEAHTVNLPGYPQVNALNDDFCRATGAATKYLELGATAGMGEALRRGMVLAMSIWWDESGFMNWLDSGESGPCNPNEGNPQNIRQIEPEPEVTYSNLRWGEIGSTYKHNLKGGWTGRN
In the case of B3, the “pI of the purified protein” value [3] is reported as about 5.5.

B4: Ta Cel7A + Ct CBD: Thermoascus aurantiacus Cel7A fused to linker and CBD of Chaetomium thermophilum Cel7A, SEQ ID NO: 30 (protein)
chain: MYQRALLFSFFLAAARAQQAGTVTAENHPSLTWQQCSSGGSCTTQNGKVVIDANWRWVHTTSGYTNCYTGNTWDTSICPDDVTCAQNCALDGADYSGTYGVTTSGNALRLNFVTQSSGKNIGSRLYLLQDDTTYQIFKLLGQEFTFDVDVSNLPCGLNGALYFVAMDADGGLSKYPGNKAGAKYGTGYCDSQCPRDLKFINGQANVEGWQPSANDPNAGVGNHGSCCAEMDVWEANSISTAVTPHPCDTPGQTMCQGDDCGGTYSSTRYAGTCDPDGCDFNPYRQGNHSFYGPGQIVDTSSKFTVVTQFITDDGTPSGTLTEIKRFYVQNGKVIPQSESTISGVTGNSITTEYCTAQKAAFGDNTGFFTHGGLQKISQALAQGMVLVMSLWDDHAANMLWLDSTYPTDADPDTPGVARGTCPTTSGVPADVESQYPNSYVIYSNIKVGPIGSTVPGLDGSNPGNPTTTVVPPASTSTSRPTSSTSSPVSTPTGQPGGCTTQKWGQCGGIGYTGCTNCVAGTTCTQLNPWYSQCL
For B4, the “Hydrolysis products as reducing sugars, WILLOW” value ([4]; EGI, XYL, AXE) was 5.6 mg/mL, the “Hydrolysis products as reducing sugars, WILLOW” value [4] was 3.7 mg/mL and the “Hydrolysis products as reducing sugars, Avicel” value [5] was 4.9 mg/mL. For the same molecule, the “Hydrolysis products as reducing sugars, WOCS” value ([6]; EGI, XYL, AXE) was 7.2 mg/mL, the “Hydrolysis products as reducing sugars, WOCS” value [6] was 4.6 mg/mL and the “Hydrolysis products as reducing sugars, SPRUCE” value [7] was 3.7 mg/mL.
